The supplement of paper PMC11246515
± gives the standard deviation of the averaged measurements.

Assay: total protein half-life in vivo (active degradation + dilution); higher = more stable protein
[1] = E. coli NCM3722 delta-clpP delta-lon delta-hslV, growth: N-lim chemostat, doubling time 6 h
[2] = E. coli NCM3722 delta-clpP, growth: N-lim chemostat, doubling time 6 h
[3] = E. coli NCM3722 delta-smpB, growth: N-lim chemostat, doubling time 6 h
[4] = wild type E. coli NCM3722, growth: C-lim chemostat, doubling time 3 h
[5] = wild type E. coli NCM3722, growth: C-lim chemostat, doubling time 12 h
[6] = wild type E. coli NCM3722, growth: N-lim chemostat, doubling time 6 h
[7] = wild type E. coli NCM3722, growth: N-lim chemostat, doubling time 12 h
[8] = wild type E. coli NCM3722, growth: P-lim chemostat, doubling time 6 h
[9] = wild type E. coli NCM3722, growth: P-lim chemostat, doubling time 12 h
[10] = E. coli NCM3722 delta-lon, growth: N-lim chemostat, doubling time 6 h
[11] = wild type E. coli NCM3722, growth: C-lim chemostat, doubling time 6 h
[12] = E. coli NCM3722 delta-hslV, growth: N-lim chemostat, doubling time 6 h

Row | Sequence | total protein half-life in vivo [1] | total protein half-life in vivo [2] | total protein half-life in vivo [3] | total protein half-life in vivo [4] | total protein half-life in vivo [5] | total protein half-life in vivo [6] | total protein half-life in vivo [7] | total protein half-life in vivo [8] | total protein half-life in vivo [9] | total protein half-life in vivo [10] | total protein half-life in vivo [11] | total protein half-life in vivo [12]
1 | MNTLLLLAALSSQITFNTTQQGDVYTIIPEVTLTQSCLCRVQILSLREGSSGQSQTKQEKTLSLPANQPIALTKLSLNISPDDRVKIVVTVSDGQSLHLSQQWPPSSEKS | 4.26 ± 0.3 h | 3.33 h | 3.31 ± 0.35 h | 2.3 h | 5.97 ± 1.4 h | 4.1 h | 6.87 ± 0.16 h | 4.19 h | 7.71 ± 0.17 h |  |  | 
2 | MKTLIVSTVLAFITFSAQAAAFQVTSNEIKTGEQLTTSHVFSGFGCEGGNTSPSLTWSGVPEGTKSFAVTVYDPDAPTGSGWWHWTVVNIPATVTYLPVDAGRRDGTKLPTGAVQGRNDFGYAGFGGACPPKGDKPHHYQFKVWALKTEKIPVDSNSSGALVGYMLNANKIATAEITPVYEIK | 4.45 ± 0.4 h | 4.74 ± 0.75 h | 5.046 ± 0.013 h | 2.24 ± 0.28 h | 7.12 ± 3.5 h | 6.15 ± 0.075 h | 10.9 ± 0.48 h | 6.28 ± 1.6 h | 10.3 ± 1.9 h | 5.18 ± 0.93 h | 3.37 h | 
3 | MDQAGIIRDLLIWLEGHLDQPLSLDNVAAKAGYSKWHLQRMFKDVTGHAIGAYIRARRLSKSAVALRLTARPILDIALQYRFDSQQTFTRAFKKQFAQTPALYRRSPEWSAFGIRPPLRLGEFTMPEHKFVTLEDTPLIGVTQSYSCSLEQISDFRHEMRYQFWHDFLGNAPTIPPVLYGLNETRPSQDKDDEQEVFYTTALAQDQADGYVLTGHPVMLQGGEYVMFTYEGLGTGVQEFILTVYGTCMPMLNLTRRKGQDIERYYPAEDAKAGDRPINLRCELLIPIRR [P0ACI0] | 5.25 ± 0.62 h | 5.39 ± 0.29 h | 5.37 ± 0.28 h | 2.92 ± 0.065 h | 11.3 ± 0.12 h | 5.15 ± 0.4 h | 9.41 ± 0.68 h | 5.31 ± 0.06 h | 11.8 ± 0.37 h | 5.49 ± 0.38 h | 6.47 ± 0.27 h | 5.7 ± 1.1 h
4 | MNDTYQPINCDDYDNLELACQHHLMLTLELKDGEKLQAKASDLVSRKNVEYLVVEAAGETRELRLDKITSFSHPEIGTVVVSES [P0AFW8] |  | 4.86 ± 0.14 h | 1.79 ± 0.12 h |  | 3.49 ± 0.41 h | 2.05 ± 0.44 h | 3.37 h | 3.17 ± 1.2 h | 5.3 ± 1.6 h | 2.15 ± 0.34 h | 1.91 h | 1.83 h
5 | MITIDGNGAVASVAFRTSEVIAIYPITPSSTMAEQADAWAGNGLKNVWGDTPRVVEMQSEAGAIATVHGALQTGALSTSFTSSQGLLLMIPTLYKLAGELTPFVLHVAARTVATHALSIFGDHSDVMAVRQTGCAMLCAANVQEAQDFALISQIATLKSRVPFIHFFDGFRTSHEINKIVPLADDTILDLMPQVEIDAHRARALNPEHPVIRGTSANPDTYFQSREATNPWYNAVYDHVEQAMNDFSAATGRQYQPFEYYGHPQAERVIILMGSAIGTCEEVVDELLTRGEKVGVLKVRLYRPFSAKHLLQALPGSVRSVAVLDRTKEPGAQAEPLYLDVMTALAEAFNNGERETLPRVIGGRYGLSSKEFGPDCVLAVFAELNAAKPKARFTVGIYDDVTNLSLPLPENTLPNSAKLEALFYGLGSDGSVSATKNNIKIIGNSTPWYAQGYFVYDSKKAGGLTVSHLRVSEQPIRSAYLISQADFVGCHQLQFIDKYQMAERLKPGGIFLLNTPYSADEVWSRLPQEVQAVLNQKKARFYVINAAKIARECGLAARINTVMQMAFFHLTQILPGDSALAELQGAIAKSYSSKGQDLVERNWQALALARESVEEVPLQPVNPHSANRPPVVSDAAPDFVKTVTAAMLAGLGDALPVSALPPDGTWPMGTTRWEKRNIAEEIPIWKEELCTQCNHCVAACPHSAIRAKVVPPEAMENAPASLHSLDVKSRDMRGQKYVLQVAPEDCTGCNLCVEVCPAKDRQNPEIKAINMMSRLEHVEEEKINYDFFLNLPEIDRSKLERIDIRTSQLITPLFEYSGACSGCGETPYIKLLTQLYGDRMLIANATGCSSIYGGNLPSTPYTTDANGRGPAWANSLFEDNAEFGLGFRLTVDQHRVRVLRLLDQFADKIPAELLTALKSDATPEVRREQVAALRQQLNDVAEAHELLRDADALVEKSIWLIGGDGWAYDIGFGGLDHVLSLTENVNILVLDTQCYSNTGGQASKATPLGAVTKFGEHGKRKARKDLGVSMMMYGHVYVAQISLGAQLNQTVKAIQEAEAYPGPSLIIAYSPCEEHGYDLALSHDQMRQLTATGFWPLYRFDPRRADEGKLPLALDSRPPSEAPEETLLHEQRFRRLNSQQPEVAEQLWKDAAADLQKRYDFLAQMAGKAEKSNTD | 4.62 ± 0.54 h | 3.16 ± 0.26 h | 2.17 ± 0.18 h | 2.14 ± 0.34 h | 5.06 ± 0.26 h | 2.57 ± 0.12 h | 3.64 ± 0.31 h | 3.77 ± 0.17 h | 6.3 ± 0.33 h | 2.87 ± 0.075 h | 3.35 ± 0.38 h | 2.72 ± 0.21 h
6 | MATTTAECLTQETMDYHALNAMLNLYDSAGRIQFDKDRQAVDAFIATHVRPNSVTFSSQQQRLNWLVNEGYYDESVLNRYSRDFVITLFTHAHTSGFRFQTFLGAWKFYTSYTLKTFDGKRYLEDFADRVTMVALTLAQGDETLALQLTDEMLSGRFQPATPTFLNCGKQQRGELVSCFLLRIEDNMESIGRAVNSALQLSKRGGGVAFLLSNLREAGAPIKRIENQSSGVIPVMKMLEDAFSYANQLGARQGAGAVYLHAHHPDILRFLDTKRENADEKIRIKTLSLGVVIPDITFHLAKENAQMALFSPYDVERVYGKPFADVAISQHYDELVADERIRKKYLNARDFFQRLAEIQFESGYPYIMYEDTVNRANPIAGRINMSNLCSEILQVNSASEYDENLDYTRTGHDISCNLGSLNIAHTMDSPDFARTVETAVRGLTAVSDMSHIRSVPSIEAGNAASHAIGLGQMNLHGYLAREGIAYGSPEALDFTNLYFYAITWHALRTSMLLARERGETFAGFKQSRYASGEYFSQYLQGNWQPKTAKVGELFTRSGITLPTREMWAQLRDDVMRYGIYNQNLQAVPPTGSISYINHATSSIHPIVAKVEIRKEGKTGRVYYPAPFMTNENLALYQDAYEIGAEKIIDTYAEATRHVDQGLSLTLFFPDTATTRDINKAQIYAWRKGIKTLYYIRLRQMALEGTEIEGCVSCAL | 4.76 ± 0.29 h | 4.61 ± 2.7 h |  |  | 2.88 ± 1.4 h |  |  |  |  |  | 2.61 ± 0.17 h | 
7 | MEKGTVKWFNNAKGFGFICPEGGGEDIFAHYSTIQMDGYRTLKAGQSVQFDVHQGPKGNHASVIVPVEVEAAVA [P0A968] | 2.08 h | 1.11 ± 0.089 h |  | 0.333 ± 0.022 h | 0.224 h |  |  |  |  |  | 0.386 h | 0.144 h
